B1: Twister Ribozyme (parent)
chain: AACACUGCCAAUGCCGGUCCCAAGCCCGGAUAAAAGUGGAGGGGGCGG

Variants of: B1
Experiment: self-cleavage, relative activity (ratio to wild type); higher = more cleavage; co-transcriptional

Compared with G16A A33G, C15A C21U is lower in self-cleavage: 0.892 for the first, 0.0997 for the second.

Compared with C15A C21A, C15U U18G is lower in self-cleavage: 0.133 for the first, 0.0578 for the second.

Going from C15U U18C to C14G U37C, the self-cleavage falls from 0.396 to 0.0984.

Compared with C14G U37A, C14G C25U is lower in self-cleavage: 0.0885 for the first, 0.0566 for the second.

Compared with C14G C25G, G16A G42U is higher in self-cleavage: 0.0771 for the first, 0.197 for the second.

First: G16A G42A
Second: C14U
The self-cleavage of the first is lower: 0.358 for the first, 1.1 for the second.

First: C14G U31G
Second: C14G U31C
The self-cleavage of the first is higher: 0.158 for the first, 0.142 for the second.

Going from C14G U31A to G16A A34G, the self-cleavage rises from 0.153 to 0.574.

First: G16A A34C
Second: C14U C19U
The self-cleavage of the first is lower: 0.174 for the first, 1.14 for the second.

Compared with C14U C19A, G16A A22C is higher in self-cleavage: 0.429 for the first, 0.941 for the second.

Compared with G16A A22U, G16A A22G is lower in self-cleavage: 0.631 for the first, 0.155 for the second.

First: C15A G39C
Second: C15A G39U
The self-cleavage of the first is lower: 0.124 for the first, 0.172 for the second.

Compared with C15A G38U, G16A U37C is lower in self-cleavage: 0.355 for the first, 0.335 for the second.

Compared with G16A U37A, C15G A30U is lower in self-cleavage: 0.457 for the first, 0.108 for the second.

Compared with C14U G45A, C14U G45U is lower in self-cleavage: 0.999 for the first, 0.964 for the second.

First: C14U G45C
Second: C15U C26G
The self-cleavage of the first is higher: 0.713 for the first, 0.0693 for the second.

Going from C15U C26U to C15G C26G, the self-cleavage falls from 0.117 to 0.0537.

Compared with G16C G41A, C14U C46A is higher in self-cleavage: 0.143 for the first, 1.05 for the second.

First: G16C C20U
Second: G16A G38C
The self-cleavage of the first is lower: 0.489 for the first, 0.761 for the second.

First: G16A G38A
Second: C15G A34G
The self-cleavage of the first is higher: 0.867 for the first, 0.103 for the second.

Going from C15G A34U to C14G A33G, the self-cleavage falls from 0.109 to 0.0896.

First: C14G A33C
Second: G16A G47A
The self-cleavage of the first is lower: 0.176 for the first, 0.702 for the second.

Compared with G16A G47C, C15U U31A is higher in self-cleavage: 0.351 for the first, 0.785 for the second.

First: G16C G47C
Second: G16C G47U
The self-cleavage of the first is lower: 0.268 for the first, 0.602 for the second.

Going from G16C G47A to C14U G28U, the self-cleavage rises from 0.165 to 1.08.

Going from C15A C19G to C15A C19A, the self-cleavage falls from 0.151 to 0.0896.

Compared with C15A C19U, C15G G38C is lower in self-cleavage: 0.566 for the first, 0.0527 for the second.

First: C15G G38U
Second: G16A U18A
The self-cleavage of the first is lower: 0.0777 for the first, 0.482 for the second.

Going from G16A U18C to C14G G24A, the self-cleavage falls from 0.41 to 0.0254.

Compared with C14G G24U, C15A A33C is higher in self-cleavage: 0.0521 for the first, 0.538 for the second.

Going from G16A C20A to G16A C20U, the self-cleavage rises from 0.12 to 0.837.

Going from C15U C25U to C15U C25A, the self-cleavage falls from 0.914 to 0.178.

Compared with C14G C20A, G16C G39U is higher in self-cleavage: 0.104 for the first, 0.144 for the second.

First: C15U A34G
Second: C15A A22U
The self-cleavage of the first is higher: 0.806 for the first, 0.24 for the second.

Going from C15A A22G to G16C C19G, the self-cleavage falls from 0.141 to 0.1.

Going from C15A A40G to C15A A40C, the self-cleavage rises from 0.107 to 0.136.

Compared with G16A A40C, C15A U37G is lower in self-cleavage: 0.122 for the first, 0.0756 for the second.

Compared with C15A G47A, C15U C46U is higher in self-cleavage: 0.39 for the first, 0.917 for the second.

First: C15U G48C
Second: C14U U18G
The self-cleavage of the first is higher: 1.07 for the first, 0.0637 for the second.

Compared with C15U C20A, C15U C20G is lower in self-cleavage: 0.176 for the first, 0.135 for the second.

Going from G16C G29A to G16C G29C, the self-cleavage falls from 0.222 to 0.117.

First: C14G A40G
Second: C14G A40C
The self-cleavage of the first is higher: 0.0712 for the first, 0.067 for the second.

Compared with C14G A40U, C15A G41U is higher in self-cleavage: 0.0589 for the first, 0.177 for the second.

Compared with G16A G44C, C15G G36U is lower in self-cleavage: 0.871 for the first, 0.0831 for the second.

Going from C15G G36C to G16A A32G, the self-cleavage rises from 0.0921 to 0.888.

Going from G16A A32U to G16C A22U, the self-cleavage falls from 0.919 to 0.21.

First: C14U G17A
Second: C15U A40U
The self-cleavage of the first is higher: 0.538 for the first, 0.15 for the second.

Compared with C15U A40G, C15U A40C is lower in self-cleavage: 0.162 for the first, 0.148 for the second.

First: C15U G38A
Second: C15U G38U
The self-cleavage of the first is higher: 0.831 for the first, 0.76 for the second.

Compared with C15U A35C, C15A A34U is lower in self-cleavage: 0.863 for the first, 0.273 for the second.

Compared with G16C A35U, G16C A35G is lower in self-cleavage: 0.577 for the first, 0.483 for the second.

First: C15A C27A
Second: C15A C27U
The self-cleavage of the first is higher: 0.18 for the first, 0.0943 for the second.

Going from C14G G48C to C14G G48A, the self-cleavage falls from 0.163 to 0.0949.

Compared with C14U U37C, C14G G29A is lower in self-cleavage: 0.602 for the first, 0.182 for the second.

Compared with G16A A23U, C14G G45C is lower in self-cleavage: 0.228 for the first, 0.0594 for the second.

First: C14G G45U
Second: C14G G45A
The self-cleavage of the first is lower: 0.101 for the first, 0.113 for the second.

First: C15U C27A
Second: C15U C27G
The self-cleavage of the first is higher: 0.105 for the first, 0.0731 for the second.

Compared with G16C G44A, G16C G44C is lower in self-cleavage: 0.803 for the first, 0.649 for the second.

Going from G16C G44U to G16C A34U, the self-cleavage falls from 0.81 to 0.207.

First: C15G A35C
Second: C15G A35G
The self-cleavage of the first is higher: 0.123 for the first, 0.0859 for the second.

Going from C15A A30C to C15A A30U, the self-cleavage rises from 0.648 to 0.89.

First: C15G G39A
Second: C14U G42A
The self-cleavage of the first is lower: 0.0759 for the first, 0.456 for the second.

Compared with C15G A40U, C14U A32U is higher in self-cleavage: 0.0313 for the first, 1.04 for the second.

Going from G16A C25G to G16A C25A, the self-cleavage falls from 0.298 to 0.117.

First: C15A C20U
Second: C15A C20A
The self-cleavage of the first is higher: 0.397 for the first, 0.0707 for the second.

First: C14U C25A
Second: C14U C25U
The self-cleavage of the first is lower: 0.27 for the first, 0.909 for the second.

Going from C14G G28U to C15U G43C, the self-cleavage falls from 0.157 to 0.125.

First: C15U G43A
Second: C14G U18G
The self-cleavage of the first is higher: 0.225 for the first, 0.0282 for the second.

First: C14G U18C
Second: C14G U18A
The self-cleavage of the first is higher: 0.074 for the first, 0.0727 for the second.

Compared with G16A G36C, G16A G36U is higher in self-cleavage: 0.133 for the first, 0.174 for the second.

Going from G16C C46U to C15G A23C, the self-cleavage falls from 0.78 to 0.137.

Going from C15G A23U to C14G G41A, the self-cleavage rises from 0.06 to 0.103.

Compared with G16A A35G, G16A A35U is higher in self-cleavage: 0.555 for the first, 1.05 for the second.

Compared with G16A A35C, C14U C15U is higher in self-cleavage: 0.927 for the first, 1.51 for the second.

Going from C14U C15A to C14U C26G, the self-cleavage falls from 0.636 to 0.235.

First: C14U C26A
Second: C15G G44A
The self-cleavage of the first is higher: 0.497 for the first, 0.0802 for the second.

Going from C15U G41A to C15U G41U, the self-cleavage falls from 0.483 to 0.452.

Compared with C14G A34G, C15G G24A is lower in self-cleavage: 0.182 for the first, 0.0815 for the second.

First: C15G G24U
Second: C15G G24C
The self-cleavage of the first is higher: 0.0758 for the first, 0.0723 for the second.

First: C14G G47C
Second: C14G G47U
The self-cleavage of the first is lower: 0.0728 for the first, 0.0804 for the second.

Compared with G16A G43A, C14G G44U is lower in self-cleavage: 0.261 for the first, 0.125 for the second.

First: C14G G44A
Second: C15A G43C
The self-cleavage of the first is higher: 0.174 for the first, 0.17 for the second.

First: C15A G43U
Second: G16A G29U
The self-cleavage of the first is lower: 0.258 for the first, 0.663 for the second.

With G16A G29C the self-cleavage was 0.339.

Reference: the RNAGym collection of RNA variant scans (doi:10.7554/elife.80360)
